Results taken from paper PMC2834479 (International journal of pharmaceutics, 2010).
Where two headings read alike, the source gives them in different places. Marks after values point to notes of the source that are not given here.

What was measured:
[1] = system: anesthetized, hyperglycemic rats; test: Blood glucose levels; assay type: in vivo, rat; details: nose drops, 2 units of insulin, mean +/- SEM, n=3-6; for Blood Glucose AUC 0-180: trapezoidal rule
[2] = rat, in vivo
[3] = Plasma insulin levels after nasal administration of insulin nose drops; details: rats, 2 units of insulin, with 0.125% TDM, human insulin RIA, mean +/- SEM, n = 3-6
[4] = system: cells that line the nasal cavity; details: 0.125% TDM, ref Arnold et al., 2004; cited from earlier work
[5] = rat, in vivo; remark: listed apart in the source
[6] = with 0.125% TDM, basal glucose 303 to 393 mg/dl

Compound	Blood Glucose at 60 minutes after Insulin administration [1, 6]	Blood Glucose AUC 0-180 [1, 6]	Plasma Insulin AUC 0-180 [2]	Plasma Insulin T-max [2]	Blood Glucose AUC 0-180 ([1]; without TDM (0%))	Blood Glucose at 60 minutes after Insulin administration ([1]; without TDM (0%), upper limit of glucometer = 600 mg/dL)	Plasma Insulin C-max [3]	Plasma Insulin AUC 0-180 ([3]; up to 180 minutes, trapezoidal rule)	Toxicity to the cells that line the nasal cavity [4]	Plasma Insulin C-max [2]	Absorption of insulin from the nasal cavity (in words) [5]
Lispro Insulin	160 +/- 27 ^a mg/dL	39863 +/- 3200 ^a mg/dL × minutes	41820 +/- 3300 ^a uU/ml × minutes	15 min	–	–	–	–	–	–	–
Regular Insulin: regular insulin (Novolin R®), Novo Nordisk	135 +/- 22 ^a mg/dL	32745 +/- 2400 ^a mg/dL × minutes	–	–	93728 ± 2600 mg·min/dL	600 +/- 10 ^** mg/dL	874 +/- 56 ^a uU/ml	33398 +/- 2500 ^a uU/ml × minutes	–	–	–
CCCCCCCCCCCCCCO[C@@H]1O[C@H](CO)[C@@H](O[C@H]2O[C@H](CO)[C@@H](O)[C@H](O)[C@H]2O)[C@H](O)[C@H]1O [TDM, tetradecyl-β-D-maltoside]	–	–	–	–	–	–	–	–	minimal toxicity	–	–
Glargine Insulin	183 +/- 26 ^a mg/dL	36345 +/- 3600 ^a mg/dL × minutes	67170 +/- 4800 ^a, ^b uU/ml × minutes	60 min	–	–	–	–	–	500 +/- 52 ^a, ^b uU/ml	absorbed from the nasal cavity
Aspart Insulin	205 +/- 13 ^a, ^b mg/dL	–	55238 +/- 4600 ^a, ^b uU/ml × minutes	15 min	–	–	–	–	–	–	absorbed from the nasal cavity
